Assay results published in article PMC5090061.

Legend:
[1] = target: GMPCPP-stabilized microtubules of porcine brain tubulin (porcine) (UniProt P02550)
[2] = target: Unpolymerized GDP-tubulin (porcine brain) (porcine) (UniProt P02550)
[3] = target: GMPCPP-stabilized microtubules of porcine brain tubulin (porcine) (UniProt P02550); test: single-molecule TIRF microscopy; rhodamine-labelled GMPCPP-stabilized microtubules stuck onto the flow-chamber surface; 1–6 nM MCAK-GFP or GFP-labelled mutant in BRB20 pH 6.9, 75 mM KCl, 1 mM ATP, 0.05% Tween 20, 0.1 mg/ml BSA; 25°C; duration of GFP events at the microtubule end and on the lattice measured from kymographs

UniProt P02550, sequence (P02550 whole entry, looked up): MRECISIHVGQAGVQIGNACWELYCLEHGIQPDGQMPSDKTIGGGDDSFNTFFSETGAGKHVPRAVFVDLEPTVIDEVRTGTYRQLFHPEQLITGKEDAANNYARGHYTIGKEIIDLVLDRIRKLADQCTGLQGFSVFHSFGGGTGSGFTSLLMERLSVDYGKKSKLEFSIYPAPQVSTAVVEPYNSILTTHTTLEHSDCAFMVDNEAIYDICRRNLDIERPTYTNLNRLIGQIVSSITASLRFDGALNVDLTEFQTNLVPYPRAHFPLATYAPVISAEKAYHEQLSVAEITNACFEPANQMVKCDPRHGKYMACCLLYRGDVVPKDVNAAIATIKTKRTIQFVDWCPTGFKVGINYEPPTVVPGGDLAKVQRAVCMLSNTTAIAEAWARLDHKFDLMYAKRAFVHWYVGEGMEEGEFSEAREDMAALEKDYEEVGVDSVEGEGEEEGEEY

Binder | depolymerization rate of individual GMPCPP microtubules with 40 nM MCAK [1] | microtubule-stimulated ATPase (0.1 µM MCAK, 10 µM GMPCPP-stabilized microtubules) [1] | tubulin-stimulated ATPase (0.1 µM MCAK, 10 µM unpolymerized GDP-tubulin) [2] | microtubule-end residence time [3] | percent of microtubule end interaction events longer than 2 s [3]
Full-length human MCAK-his6-EGFP (wild type) (natural protein) MAMDSSLQARLFPGLAIKIQRSNGLIHSANVRTVNLEKSCVSVEWAEGGATKGKEIDFDDVAAINPELLQLLPLHPKDNLPLQENVTIQKQKRRSVNSKIPAPKESLRSRSTRMSTVSELRITAQENDMEVELPAAANSRKQFSVPPAPTRPSCPAVAEIPLRMVSEEMEEQVHSIRGSSSANPVNSVRRKSCLVKEVEKMKNKREEKKAQNSEMRMKRAQEYDSSFPNWEFARMIKEFRATLECHPLTMTDPIEEHRICVCVRKRPLNKQELAKKEIDVISIPSKCLLLVHEPKLKVDLTKYLENQAFCFDFAFDETASNEVVYRFTARPLVQTIFEGGKATCFAYGQTGSGKTHTMGGDLSGKAQNASKGIYAMASRDVFLLKNQPCYRKLGLEVYVTFFEIYNGKLFDLLNKKAKLRVLEDGKQQVQVVGLQEHLVNSADDVIKMIDMGSACRTSGQTFANSNSSRSHACFQIILRAKGRMHGKFSLVDLAGNERGADTSSADRQTRMEGAEINKSLLALKECIRALGQNKAHTPFRESKLTQVLRDSFIGENSRTCMIATISPGISSCEYTLNTLRYADRVKELSPHSGPSGEQLIQMETEEMEACSNGALIPGNLSKEEEELSSQMSSFNEAMTQIRELEEKAMEELKEIIQQGPDWLELSEMTEQPDYDLETFVNKAESALAQQAKHFSALRDVIKALRLAMQLEEQASRQISSKKRPQ | 2.12 μm min^−1 | 3.16 s⁻¹ | 0.204 s⁻¹ | 2.03 s | 31.5%
Full-length human MCAK-his6-EGFP E525A (natural protein) MAMDSSLQARLFPGLAIKIQRSNGLIHSANVRTVNLEKSCVSVEWAEGGATKGKEIDFDDVAAINPELLQLLPLHPKDNLPLQENVTIQKQKRRSVNSKIPAPKESLRSRSTRMSTVSELRITAQENDMEVELPAAANSRKQFSVPPAPTRPSCPAVAEIPLRMVSEEMEEQVHSIRGSSSANPVNSVRRKSCLVKEVEKMKNKREEKKAQNSEMRMKRAQEYDSSFPNWEFARMIKEFRATLECHPLTMTDPIEEHRICVCVRKRPLNKQELAKKEIDVISIPSKCLLLVHEPKLKVDLTKYLENQAFCFDFAFDETASNEVVYRFTARPLVQTIFEGGKATCFAYGQTGSGKTHTMGGDLSGKAQNASKGIYAMASRDVFLLKNQPCYRKLGLEVYVTFFEIYNGKLFDLLNKKAKLRVLEDGKQQVQVVGLQEHLVNSADDVIKMIDMGSACRTSGQTFANSNSSRSHACFQIILRAKGRMHGKFSLVDLAGNERGADTSSADRQTRMEGAEINKSLLALKACIRALGQNKAHTPFRESKLTQVLRDSFIGENSRTCMIATISPGISSCEYTLNTLRYADRVKELSPHSGPSGEQLIQMETEEMEACSNGALIPGNLSKEEEELSSQMSSFNEAMTQIRELEEKAMEELKEIIQQGPDWLELSEMTEQPDYDLETFVNKAESALAQQAKHFSALRDVIKALRLAMQLEEQASRQISSKKRPQ | 0.1 μm min^−1 | 0.16 s⁻¹ | 0.195 s⁻¹ | 0.59 s | 0.9%
Full-length human MCAK-his6-EGFP R528A (natural protein) MAMDSSLQARLFPGLAIKIQRSNGLIHSANVRTVNLEKSCVSVEWAEGGATKGKEIDFDDVAAINPELLQLLPLHPKDNLPLQENVTIQKQKRRSVNSKIPAPKESLRSRSTRMSTVSELRITAQENDMEVELPAAANSRKQFSVPPAPTRPSCPAVAEIPLRMVSEEMEEQVHSIRGSSSANPVNSVRRKSCLVKEVEKMKNKREEKKAQNSEMRMKRAQEYDSSFPNWEFARMIKEFRATLECHPLTMTDPIEEHRICVCVRKRPLNKQELAKKEIDVISIPSKCLLLVHEPKLKVDLTKYLENQAFCFDFAFDETASNEVVYRFTARPLVQTIFEGGKATCFAYGQTGSGKTHTMGGDLSGKAQNASKGIYAMASRDVFLLKNQPCYRKLGLEVYVTFFEIYNGKLFDLLNKKAKLRVLEDGKQQVQVVGLQEHLVNSADDVIKMIDMGSACRTSGQTFANSNSSRSHACFQIILRAKGRMHGKFSLVDLAGNERGADTSSADRQTRMEGAEINKSLLALKECIAALGQNKAHTPFRESKLTQVLRDSFIGENSRTCMIATISPGISSCEYTLNTLRYADRVKELSPHSGPSGEQLIQMETEEMEACSNGALIPGNLSKEEEELSSQMSSFNEAMTQIRELEEKAMEELKEIIQQGPDWLELSEMTEQPDYDLETFVNKAESALAQQAKHFSALRDVIKALRLAMQLEEQASRQISSKKRPQ | 0.29 μm min^−1 | 0.66 s⁻¹ | 0.205 s⁻¹ | 0.65 s | 0%
Full-length human MCAK-his6-EGFP K524A (natural protein) MAMDSSLQARLFPGLAIKIQRSNGLIHSANVRTVNLEKSCVSVEWAEGGATKGKEIDFDDVAAINPELLQLLPLHPKDNLPLQENVTIQKQKRRSVNSKIPAPKESLRSRSTRMSTVSELRITAQENDMEVELPAAANSRKQFSVPPAPTRPSCPAVAEIPLRMVSEEMEEQVHSIRGSSSANPVNSVRRKSCLVKEVEKMKNKREEKKAQNSEMRMKRAQEYDSSFPNWEFARMIKEFRATLECHPLTMTDPIEEHRICVCVRKRPLNKQELAKKEIDVISIPSKCLLLVHEPKLKVDLTKYLENQAFCFDFAFDETASNEVVYRFTARPLVQTIFEGGKATCFAYGQTGSGKTHTMGGDLSGKAQNASKGIYAMASRDVFLLKNQPCYRKLGLEVYVTFFEIYNGKLFDLLNKKAKLRVLEDGKQQVQVVGLQEHLVNSADDVIKMIDMGSACRTSGQTFANSNSSRSHACFQIILRAKGRMHGKFSLVDLAGNERGADTSSADRQTRMEGAEINKSLLALAECIRALGQNKAHTPFRESKLTQVLRDSFIGENSRTCMIATISPGISSCEYTLNTLRYADRVKELSPHSGPSGEQLIQMETEEMEACSNGALIPGNLSKEEEELSSQMSSFNEAMTQIRELEEKAMEELKEIIQQGPDWLELSEMTEQPDYDLETFVNKAESALAQQAKHFSALRDVIKALRLAMQLEEQASRQISSKKRPQ | 0.13 μm min^−1 | 0.72 s⁻¹ | 0.184 s⁻¹ | 0.59 s | 0%
